# Target: Factor I (UniProt P05156)
# Experiment: ELISA
# Conditions: CipA variants coated at 5 ng/µl; FI 10 ng/µl; anti-FI antibody 1:1,000; parent: est. 2.8; read off a plot
row,Substance,response (Absorbance at 490 nm)
1,"CipA (hexahistidine-tagged, lacking the N-terminal signal sequence, amino acid residues 19-369) P367del",2
2,"CipA (hexahistidine-tagged, lacking the N-terminal signal sequence, amino acid residues 19-369) V364del",1.9
3,"CipA (hexahistidine-tagged, lacking the N-terminal signal sequence, amino acid residues 19-369) L363del",2
4,"CipA (hexahistidine-tagged, lacking the N-terminal signal sequence, amino acid residues 19-369) K365A; K366A; K368A; K369A",2.7
5,"CipA (hexahistidine-tagged, lacking the N-terminal signal sequence, amino acid residues 19-369) L363del; V364del",2.7
6,"CipA (hexahistidine-tagged, lacking the N-terminal signal sequence, amino acid residues 19-369) P367A",2.1

# Same assay, conditions: CipA variants coated at 5 ng/µl; FI 10 ng/µl; anti-FI antibody 1:1,000; parent: est. 3.1; read off a plot
row,Substance,response (Absorbance at 490 nm)
1,"CipA (hexahistidine-tagged, lacking the N-terminal signal sequence, amino acid residues 19-369) E360A",2.8
2,"CipA (hexahistidine-tagged, lacking the N-terminal signal sequence, amino acid residues 19-369) E362A",2.9
3,"CipA (hexahistidine-tagged, lacking the N-terminal signal sequence, amino acid residues 19-369) E360P",0.35
4,"CipA (hexahistidine-tagged, lacking the N-terminal signal sequence, amino acid residues 19-369) Q361A",3.1

# Target: CipA (hexahistidine-tagged, lacking the N-terminal signal sequence, amino acid residues 19-369) (Acinetobacter baumannii)
# Experiment: ELISA; CipA immobilised (5 µg/ml), increasing amounts of complement component (0 to 50 nM in the methods; 0 to 25 nM FI in the legend); dissociation constant approximated by non-linear regression, one-site specific binding model
# Conditions: not given
row,Substance,Kd [nM]
1,Factor I (from UniProt P05156 19-335; P05156 340-583) (enzyme),3
